The source of these data is PMC7065885.

For test [1], the target named is human CD11b I-domain (human). As to the kind of experiment: SPR.
The target of test [2] is murine CD11b I-domain (mouse). Nature of the test: SPR.
Sequence of murine CD11b I-domain (mouse) (P05555 17-1153): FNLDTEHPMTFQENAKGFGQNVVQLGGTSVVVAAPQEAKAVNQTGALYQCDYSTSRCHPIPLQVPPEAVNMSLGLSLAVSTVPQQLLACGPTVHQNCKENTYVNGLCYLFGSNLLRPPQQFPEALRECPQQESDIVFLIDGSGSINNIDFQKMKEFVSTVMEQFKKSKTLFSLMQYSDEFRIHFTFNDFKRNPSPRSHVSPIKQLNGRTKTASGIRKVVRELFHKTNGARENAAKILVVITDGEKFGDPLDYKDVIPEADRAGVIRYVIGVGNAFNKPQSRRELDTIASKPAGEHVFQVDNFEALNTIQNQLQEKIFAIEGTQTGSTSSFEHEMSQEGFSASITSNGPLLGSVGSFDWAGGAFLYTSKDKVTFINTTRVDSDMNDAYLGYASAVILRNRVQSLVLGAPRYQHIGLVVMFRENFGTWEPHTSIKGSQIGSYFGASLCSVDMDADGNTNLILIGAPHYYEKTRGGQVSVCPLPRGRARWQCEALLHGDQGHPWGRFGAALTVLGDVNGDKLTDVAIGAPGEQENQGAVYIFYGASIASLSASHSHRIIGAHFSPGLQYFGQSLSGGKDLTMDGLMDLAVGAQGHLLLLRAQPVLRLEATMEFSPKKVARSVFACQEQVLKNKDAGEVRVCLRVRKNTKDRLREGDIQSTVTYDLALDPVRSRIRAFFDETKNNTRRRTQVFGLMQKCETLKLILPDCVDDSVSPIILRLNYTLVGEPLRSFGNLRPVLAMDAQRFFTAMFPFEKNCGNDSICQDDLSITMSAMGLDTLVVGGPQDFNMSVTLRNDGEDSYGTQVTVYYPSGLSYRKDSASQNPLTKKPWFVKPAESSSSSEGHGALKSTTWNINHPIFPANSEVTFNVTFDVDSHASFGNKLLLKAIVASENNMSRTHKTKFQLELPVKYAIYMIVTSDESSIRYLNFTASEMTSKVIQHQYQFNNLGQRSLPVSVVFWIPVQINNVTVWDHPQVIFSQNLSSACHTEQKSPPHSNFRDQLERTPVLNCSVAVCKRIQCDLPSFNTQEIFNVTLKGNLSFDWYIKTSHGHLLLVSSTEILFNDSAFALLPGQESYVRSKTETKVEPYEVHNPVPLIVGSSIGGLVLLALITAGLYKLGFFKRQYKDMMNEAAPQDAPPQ

Turning to LukAB (complex), the Kd in test [1] was determined as 0.0393 µM; in test [2], 247 µM.
